Measured values as given in US20240018252A1 (Pfizer, published 2024).
Changes are numbered by the printed parent chain. One block for each binder: values may come before it.

Experiments:
human CD3 (huCD3ed) = target: T1, human CD3 (huCD3ed) (human, UniProt P07766 23-126; P04234 22-105); assay: Biacore SPR, antibody as ligand, hCD3ed; steady state affinity only, rough estimate (antibody heterogeneous)
T1 construct: Soluble analyte in SPR; The delta chain is inferred from the label 'ed'; also called hCD3ed; hCD3
T1 sequence (P07766 23-126, chain 1 of 2): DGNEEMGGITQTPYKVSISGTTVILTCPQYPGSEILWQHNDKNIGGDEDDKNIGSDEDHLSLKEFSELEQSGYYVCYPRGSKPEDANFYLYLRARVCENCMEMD
T1 sequence (P04234 22-105, chain 2 of 2): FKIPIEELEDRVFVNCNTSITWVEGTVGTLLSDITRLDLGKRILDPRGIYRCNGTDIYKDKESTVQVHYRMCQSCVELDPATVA

[1] = target: T2, human BCMA on BCMA-expressing tumor cells (human, UniProt Q02223 1-184); assay: flow cytometry, 0.5 ug antibody on 250,000 KMS12BM (BCMA+) cells, Alexa Fluor 647 anti-mouse IgG
T2 construct: endogenous BCMA of myeloma cell lines; also called BCMA on KMS12PE, MM1S (MM1.S), L363, KMS12BM cells
T2 sequence: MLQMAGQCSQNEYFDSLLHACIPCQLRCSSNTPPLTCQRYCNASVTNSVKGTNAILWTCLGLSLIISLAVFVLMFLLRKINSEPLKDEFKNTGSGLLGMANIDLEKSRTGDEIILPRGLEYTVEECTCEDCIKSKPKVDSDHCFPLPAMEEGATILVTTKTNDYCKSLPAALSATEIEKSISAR
Protocol: (§1) Binding of human anti-hBCMA expressed in mouse IgG2a were assessed on BCMA-expressing cells (KMS12BM, L363, MM1S and KMS12PE) by flow cytometry. 250,000 cells were incubated with 0.5 ug antibody in 100 uL binding buffer (PBS (Phosphate Buffered Saline)+0.2% BSA (Bovine Serum Albumin)), followed by incubation with Alex Fluor 647 conjugated anti-mouse IgG (Biolegend).

[2] = target: T2, human BCMA on BCMA-expressing tumor …; assay: flow cytometry, 0.5 ug antibody on 250,000 MM1S (BCMA++) cells, Alexa Fluor 647 anti-mouse IgG
Protocol: as §1

[3] = target: T2, human BCMA on BCMA-expressing tumor …; assay: flow cytometry, 0.5 ug antibody on 250,000 L363 (BCMA+) cells, Alexa Fluor 647 anti-mouse IgG
Protocol: as §1

[4] = target: T2, human BCMA on BCMA-expressing tumor …; assay: flow cytometry, 0.5 ug antibody on 250,000 KMS12PE (BCMA+++) cells, Alexa Fluor 647 anti-mouse IgG
Protocol: as §1

Kd (human CD3 (huCD3ed)): 82.7 nM
B1: 7A3 (antibody, mouse IgG1, V domains shown)
VH: EVQLQQSGAELVRPGALVKLSCKGSGFNIKDYYIHWVKQRPEQGLEWIGWIDPENGNNKYDPKFQGKASITADTSSNIAYLQLSSLTSEDTAVYYCARNDNYAFDYWGQGTTVTVSS
VL: DIVVSQSPSSLAVSAGEKVIMSCKSSQSLLNSRTRKNYLAWYQLKPGQSPKLLIYSASTRESGVPDRFTGSGSGTDFTLTISSVQTEDLAVYYCMQSFTLRTFGGGTKLEIK
notes: Cloned from immunized mouse, expressed as mouse IgG1; also called anti-CD3 7A3

Kd (human CD3 (huCD3ed)): 100 nM
B2: 1A4 (antibody, mouse IgG1, V domains shown)
VH: QVQLQQSGPDLVKPGASVEISCKASGYSFTTYYLHWVRQRPGQGLEWIGWIFPGSDNTKYNEKFKGKATLTADTSSSTAYMQLSSLTSEDSAVYFCARNRDYYFDYWGQGTTVTVSS
VL: B1 VL with V4M, I20T, L44Q, S56W, E61A, T86A, V91I, M95K, T99I
notes: Cloned from immunized mouse, expressed as mouse IgG1; also called anti-CD3 1A4

MFI [1]: 421
MFI [2]: 1950
MFI [3]: 789
MFI [4]: 3090
B3: A02_Rd4_6 nM_C16 expressed in mouse IgG2a (antibody, V domains shown)
VH: EVQLLESGGGLVQPGGSLRLSCAASGFTFSSYAMNWVRQAPGKGLEWVSAISDFGGSTYYADSVKGRFTISRDNSKNTLYLQMNSLRAEDTAVYYCARYWPMDIWGQGTLVTVSS
VL: EIVLTQSPGTLSLSPGERATLSCRASQSVSDLYLAWYQQKPGQAPRLLMYDASIRATGIPDRFSGSGSGTDFTLTISRLEPEDFAVYYCQQYQTWPLTFGQGTKVEIK

MFI [1]: 580
MFI [2]: 2540
MFI [3]: 1180
MFI [4]: 5860
B4: A02_Rd4_6 nM_C01 expressed in mouse IgG2a (antibody, V domains shown)
VH: B3 VH with S52T, D53A, F54S, D103S, I104L
VL: B3 VL with D31A, L32Y, Q93E, T94R

MFI [1]: 583
MFI [2]: 2570
MFI [3]: 1670
MFI [4]: 6110
B5: Combo_Rd4_0.6 nM_C29 expressed in mouse IgG2a (antibody, V domains shown)
VH: B3 VH with A33P, N35S, S52G, D53G, F54S, T58L, Y59P
VL: B3 VL with D31S, L32S, T94S
